These results are taken from paper PMC9412290.

The target in the assay is CD46, stably expressed on CHO cells (CHO-CD46) (human) (UniProt P15529).
Chain of UniProt P15529 (P15529 35-392): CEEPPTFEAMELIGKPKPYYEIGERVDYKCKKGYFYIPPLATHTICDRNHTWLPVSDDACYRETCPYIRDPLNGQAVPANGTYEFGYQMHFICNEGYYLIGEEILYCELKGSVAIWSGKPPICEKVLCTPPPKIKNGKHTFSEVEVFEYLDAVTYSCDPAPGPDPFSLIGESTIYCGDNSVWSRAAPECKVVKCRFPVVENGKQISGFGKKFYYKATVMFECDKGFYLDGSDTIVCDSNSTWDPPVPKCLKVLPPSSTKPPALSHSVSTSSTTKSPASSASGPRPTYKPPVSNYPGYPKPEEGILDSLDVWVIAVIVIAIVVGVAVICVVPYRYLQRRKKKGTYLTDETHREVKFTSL

B1: human adenovirus type 3 (Ad3) fiber, on particles of the Ad3 vector (natural protein)
chain: MAKRARLSTSFNPVYPYEDESSSQHPFINPGFISPDGFTQSPNGVLSLKCVNPLTTASGSLQLKVGSGLTVDTTDGSLEENIKVNTPLTKSNHSINLPIGNGLQIEQNKLCSKLGNGLTFDSSNSIALKNNTLWTGPKPEANCIIEYGKQNPDSKLTLILVKNGGIVNGYVTLMGASDYVNTLFKNKNVSINVELYFDATGHILPDSSSLKTDLELKYKQTADFSARGFMPSTTAYPFVLPNAGTHNENYIFGQCYYKASDGALFPLEVTVMLNKRLPDSRTSYVMTFLWSLNAGLAPETTQATLITSPFTFSYIREDD
As for B1, the percent GFP-positive cells by flow cytometry after infection of CHO-CD46 cells with 2000 vp/c of the Ad3 vector (transduction; CHO-K1 without receptor is not transduced) was found to be 13%.

B2: human adenovirus type 3 (Ad3) fiber with the JO4 mutation (V239D), on particles of the Ad3-JO4 vector (natural protein)
chain: MAKRARLSTSFNPVYPYEDESSSQHPFINPGFISPDGFTQSPNGVLSLKCVNPLTTASGSLQLKVGSGLTVDTTDGSLEENIKVNTPLTKSNHSINLPIGNGLQIEQNKLCSKLGNGLTFDSSNSIALKNNTLWTGPKPEANCIIEYGKQNPDSKLTLILVKNGGIVNGYVTLMGASDYVNTLFKNKNVSINVELYFDATGHILPDSSSLKTDLELKYKQTADFSARGFMPSTTAYPFDLPNAGTHNENYIFGQCYYKASDGALFPLEVTVMLNKRLPDSRTSYVMTFLWSLNAGLAPETTQATLITSPFTFSYIREDD
For the molecule B2, the percent GFP-positive cells by flow cytometry after infection of CHO-CD46 cells with 2000 vp/c of the Ad3-JO4 vector (transduction; CHO-K1 without receptor is not transduced) is less than 5%.
